The results in this text go back to US20230138315A1 (JIANGSU HENGRUI MEDICINE, published 2023).

What all share (assay): HTRF; biotin-labelled antigen with Streptavidin-Tb cryptate
One test has as its target T1, rat ANGPTL3(17-455)-His (rat, biotin-labelled in the ELISA and HTRF assays (sites not given)).
T1 construct: also called full-length rat ANGPTL3
T1 chain: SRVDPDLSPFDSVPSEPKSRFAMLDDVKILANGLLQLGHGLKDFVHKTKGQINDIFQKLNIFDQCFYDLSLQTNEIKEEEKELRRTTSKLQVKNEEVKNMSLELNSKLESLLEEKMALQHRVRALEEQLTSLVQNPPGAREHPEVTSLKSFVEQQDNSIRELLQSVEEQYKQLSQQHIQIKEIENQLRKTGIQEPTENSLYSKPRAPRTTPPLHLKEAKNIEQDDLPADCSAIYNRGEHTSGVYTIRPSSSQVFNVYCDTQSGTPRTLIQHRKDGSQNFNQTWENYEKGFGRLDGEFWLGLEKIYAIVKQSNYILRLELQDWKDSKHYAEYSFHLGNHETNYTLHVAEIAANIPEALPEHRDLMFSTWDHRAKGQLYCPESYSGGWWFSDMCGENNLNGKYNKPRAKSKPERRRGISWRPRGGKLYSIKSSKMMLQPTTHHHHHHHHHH

Test [1] addresses T2, human-ANGPTL3(17-460)-His (human, UniProt Q9Y5C1 17-460, biotin-labelled (labelling kit, sites not stated)).
T2 construct: also called full-length human ANGPTL3
T2 sequence: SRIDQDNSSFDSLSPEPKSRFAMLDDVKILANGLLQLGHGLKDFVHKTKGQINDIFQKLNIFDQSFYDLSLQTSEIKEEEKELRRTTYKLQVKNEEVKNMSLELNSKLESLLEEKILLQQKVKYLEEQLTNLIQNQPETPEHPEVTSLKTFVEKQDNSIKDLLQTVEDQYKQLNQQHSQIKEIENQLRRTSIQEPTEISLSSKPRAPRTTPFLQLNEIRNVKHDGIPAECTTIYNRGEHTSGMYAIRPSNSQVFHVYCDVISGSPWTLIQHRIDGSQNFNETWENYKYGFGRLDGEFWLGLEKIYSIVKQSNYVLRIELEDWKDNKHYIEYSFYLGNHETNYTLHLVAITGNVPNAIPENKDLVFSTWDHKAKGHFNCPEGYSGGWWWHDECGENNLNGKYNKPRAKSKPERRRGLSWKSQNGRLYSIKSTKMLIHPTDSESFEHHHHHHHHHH

Test [2] has as its target T3, mouse ANGPTL3(17-455)-His (mouse, UniProt Q9R182 17-455, biotin-labelled in the ELISA and HTRF assays (sites not given)).
T3 construct: also called full-length mouse ANGPTL3
T3 sequence: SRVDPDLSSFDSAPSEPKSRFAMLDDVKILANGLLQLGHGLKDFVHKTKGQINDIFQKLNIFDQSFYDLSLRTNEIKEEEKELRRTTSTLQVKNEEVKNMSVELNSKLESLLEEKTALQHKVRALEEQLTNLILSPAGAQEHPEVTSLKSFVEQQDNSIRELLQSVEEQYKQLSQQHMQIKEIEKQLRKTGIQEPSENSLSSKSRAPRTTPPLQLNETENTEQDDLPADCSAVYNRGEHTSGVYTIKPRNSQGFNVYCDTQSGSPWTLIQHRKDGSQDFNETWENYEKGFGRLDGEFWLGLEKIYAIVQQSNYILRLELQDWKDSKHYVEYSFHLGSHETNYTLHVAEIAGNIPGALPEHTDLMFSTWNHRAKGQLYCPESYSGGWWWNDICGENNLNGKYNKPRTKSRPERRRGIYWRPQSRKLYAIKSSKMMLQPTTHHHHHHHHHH

In test [3] the target is T4, cynomolgus monkey ANGPTL3(17-460)-His (cynomolgus monkey, UniProt Q9Y5C1 17-460 (human entry), biotin-labelled in the ELISA and HTRF assays (sites not given)).
T4 construct: also called full-length cynomolgus monkey ANGPTL3; Cyno ANGPTL3
T4 chain: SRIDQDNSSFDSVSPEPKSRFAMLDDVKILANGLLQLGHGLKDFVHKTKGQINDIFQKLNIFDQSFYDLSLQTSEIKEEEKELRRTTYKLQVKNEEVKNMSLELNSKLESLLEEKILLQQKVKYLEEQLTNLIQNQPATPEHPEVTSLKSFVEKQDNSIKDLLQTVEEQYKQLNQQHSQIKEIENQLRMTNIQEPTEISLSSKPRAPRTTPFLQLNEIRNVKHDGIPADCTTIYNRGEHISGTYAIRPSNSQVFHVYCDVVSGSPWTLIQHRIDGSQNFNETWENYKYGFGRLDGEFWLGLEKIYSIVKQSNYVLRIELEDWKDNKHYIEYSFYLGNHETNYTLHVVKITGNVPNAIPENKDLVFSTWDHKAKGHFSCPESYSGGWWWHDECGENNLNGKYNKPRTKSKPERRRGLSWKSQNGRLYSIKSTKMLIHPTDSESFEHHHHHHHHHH

By EC50 is commonly meant the concentration at which the effect is half-maximal.

B1: P8G (antibody, human IgG4 S228P, kappa, V domains shown)
VH: QVQLVQSGAEVKKPGASVKVSCKASGYTFTSYDINWVRQAPGQGLEWVGLINPRDDSTSYAQKFQGRVTMTRDTSTSTMYMELSSLRSEDTAVYFCARDLGSIREVLYYGMDVWGQGTTVTVSS
VL: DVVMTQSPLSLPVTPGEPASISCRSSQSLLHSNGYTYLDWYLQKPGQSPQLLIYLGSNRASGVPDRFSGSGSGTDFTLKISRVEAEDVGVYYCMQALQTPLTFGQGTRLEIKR
notes: also called anti-ANGPTL3 antibody P8G; P8 (variable regions)
As to B1, the EC50 with rat ANGPTL3(17-455)-His came to 484 pM; in test [1], 784 pM; in test [2], 450 pM; in test [3], 303 pM.

B2: P3G (antibody, human IgG4 S228P, kappa, V domains shown)
VH: QVQLVQSGAEVKKPGASVKVSCKSSGYTFTDYYLHWLRQAPGQGPEWMGWISPNSGGTSYAQKFQGRVTMTRDTSISTAYMELSSLRSDDTAVYYCARDIATLGNFFTYGMDVWGQGTTVTVSS
VL: DIQLTQSPSSLSASVGDRVTITCRASQGIRNDLGWYQQKPGKAPKLLIYAASSLQSGVPSRFSGSGSGTDFTLTISSLQPEDFATYYCQQSYSSWTFGQGTKVEIKR
notes: also called anti-ANGPTL3 antibody P3G; P3 (variable regions)
For B2, the EC50 with rat ANGPTL3(17-455)-His was 597 pM; in test [1], 929 pM; in test [2], 638 pM; in test [3] it was 502 pM.
